Data reported in patent US20230398228A1, “ERIBULIN-BASED ANTIBODY-DRUG CONJUGATES AND METHODS OF USE” (EISAI R&D MANAGEMENT CO., LTD., priority 2016, published 2023).
Entries after “also recorded” stand apart in the source; their conditions may differ.

Assays:
[1] = system: SJSA-1 cells; experiment: Crystal Violet cytotoxicity assay (Examples 1 and 2), SJSA-1
Method: (§1) Typically, test reagents were serial diluted 1:4 in 2 mL deep-well dilution plates, starting at 1 μM (10 dilutions total). 100 μL of diluted samples were added to the cell plates (starting concentration of test samples at 500 nM). […] Medium was discarded, plates were washed once with 200 μL DPBS, stained with 50 μL of 0.2% Crystal Violet solution at room temperature for 15 min, and then washed extensively with tap water. Plates were air-dried, and Crystal Violet was dissolved with 200 μL of 1% SDS solution. Plates were read at 570 nm. Data was analyzed using GraphPad Prism 6. Assays were performed using a seeding density of 1,000 cells per well and compound exposure was for a total of 5 days. When shorter-term exposure was desired, medium containing cytotoxic agents was removed after 4 hours and replaced with fresh growth medium prior to 5-day incubation. For OVCAR3, CaOV3, and NCI-H2110, cells were seeded at 3,000 cells/well and incubated for 5 days with ADC.
In vitro potency of prepared ADCs was assessed using a Crystal Violet assay as detailed in section 1.4.1.
(§2) SJSA-1 cells are a human osteosarcoma tumor cell line that are negative for folate receptor alpha.
(§3) Typically, test reagents were serially-diluted 1:4 in 2 mL deep-well dilution plates, starting at 1 μM (10 dilutions total). 100 μL of diluted samples were added to the cell plates (starting concentration of test samples at 100 nM). […] Medium was discarded, plates were washed once with 200 μL DPBS, stained with 50 μL of 0.2% Crystal Violet solution at room temperature for 15 min, and then washed extensively with tap water. Plates were air-dried, and Crystal Violet was dissolved with 200 μL of 1% SDS solution. Plates were read at 570 nm. Data was analyzed using GraphPad Prism 6.

[2] = system: NCI-H2110 cells; details: Example 1
Method: as §1, §2, §3

[3] = system: OVCAR3 cells; experiment: Crystal Violet cytotoxicity assay (Examples 1 and 2), OVCAR3; details: Example 1
Method: as §1, §2
Typically, test reagents were serially-diluted 1:4 in 2 mL deep-well dilution plates, starting at 1 μM (10 dilutions total). 100 μL of diluted samples were added to the cell plates (starting concentration of test samples at 100 nM). […] Plates were read at 570 nm. Data was analyzed using GraphPad Prism 6.

[4] = system: NCI-N87 cells; experiment: Crystal Violet cytotoxicity assay (Example 4), NCI-N87; type: cell-based, human
Method: (§4) Test reagents were serial diluted 1:3 in 2 mL deep-well dilution plates, starting at 200 nM (10 dilutions total). […] Medium was then discarded. […] Plates were read at 570 nm. Data was analyzed using GraphPad Prism 6.

[5] = system: ZR-75 cells; experiment: Crystal Violet cytotoxicity assay (Example 4), ZR-75; type: cell-based, human
Method: as §4

[6] = system: NUGC3 cells; experiment: Crystal Violet cytotoxicity assay (Example 4), NUGC3; type: cell-based, human; details: listed as MORAb-003-VCP-eribulin
Method: as §4

[7] = system: Endo-12961 endometrial cancer patient-derived xenograft; experiment: Endometrial cancer PDx model Endo-12961
Method: Tumor fragments were implanted subcutaneously into the left flank of 40 NMRI nu/nu female mice, and tumor volume was monitored. Mice with a tumor volume of 100-160 mm^3 were randomized into one of four groups (Groups A-D, Table 39). […] Each group consisted of 8 animals. The day of randomization was designated as Day 0 of the experiment.
Tumor growth was evaluated by the measurement of two perpendicular diameters twice weekly, and tumor volume (TV), relative tumor volume (RTV) and treated/control (T/C) values were calculated. Body weight was also evaluated twice weekly as a parameter for toxicity, with the calculation of the body weight per group and body weight changes (BWC) relative to the start of treatment. Animals were sacrificed when the individual tumor volume exceeded 1 cm^3, or at the end of the study.

MORAb-003-maleimido-PEG2-Val-Cit-pAB-eribulin [MORAb-202]
killing of FR-negative SJSA-1 cells (off-target), in words ([1]; Example 1 screening): little killing
IC50 ([1]; read-out: Cytotoxicity (IC50) SJSA-1, SJSA-1 cells, mean of replicate experiments, where performed): > 100 nM
EC50 ([1]; read-out: cytotoxicity (EC50) on SJSA-1 cells, Example 2): > 100 nM
cytotoxicity on NCI-H2110 cells, in words [2]: potent cytotoxicity
IC50 ([2]; read-out: IC50 on NCI-H2110): 0.73 nM
cytotoxicity on OVCAR3 cells, in words [3]: potent cytotoxicity
cytotoxicity on NCI-N87 cells, in words [4]: weak but specific killing
cytotoxicity on ZR-75 cells, in words [5]: little killing
cytotoxicity on NUGC3 cells, in words [6]: little killing; also recorded: low cytotoxicity
tumor re-growth during the study, in words ([7]; MORAb-202 5 mg/kg or eribulin 3.2 mg/kg): no significant tumor re-growth
anti-tumor activity, in words ([7]; MORAb-202 5 mg/kg or eribulin 3.2 mg/kg, single i.v. dose): significant anti-tumor activity
effect on body weight, in words ([7]; first week post-treatment): no body weight loss
